Experimental data reported in US20190144550A1 (Pfizer, published 2019).

B1: B5 (antibody, V domains shown)
VH: EVQLLESGGGLVQPGGSLRLSCAASGFTFSNYAMSWVRQAPGKGLEWVSDISGGGGRTYYADSVKGRFTISRDNSKNTLYLQMNSLRAEDTAVYYCARAGLLYGGGVYPMDIWGQGTLVTVSS
VL: not shown
notes: From a phage library; recombinant human IgG1
B2: C6 (antibody, V domains shown)
VH: QVQLVQSGAEVKKPGSSVKVSCKASGDTFSSNAISWVRQAPGQGLEWMGVIIPIFGTADYAQKFQGRVTITADESTSTAYMELSSLRSEDTAVYYCARHTYHEYAGGYYGGAMDPWGQGTLVTVSS
VL: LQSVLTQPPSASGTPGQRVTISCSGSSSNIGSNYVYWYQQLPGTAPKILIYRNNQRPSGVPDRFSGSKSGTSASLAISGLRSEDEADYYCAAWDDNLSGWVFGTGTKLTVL
notes: as for B1
B3: 20E12 EGFRvIII specific CAR (other)
chain: EVNLVESGGGLVKPGGSLRLSCEASGFTFSYAWMSWVRQAPGKGLEWVGRIKSIADGGATDYAAPVRNRFTISRDDSRNTLYLEMHSLKTEDTAVYYCTTIPGNDAFDMWGQGTMVTVSSGGGGSGGGGSGGGGSGGGGSDIVLTQSPLSLSVTPGEPASISCRSSQSLLYSNGKNYLDWFLHKPGQSPQLLIYLGSNRASGVPDRFSGSGSGIDFILKISRVEAEDVGVYYCMQAQQTPITFGQGTRLEIKTTTPAPRPPTPAPTIASQPLSLRPEACRPAAGGAVHTRGLDFACDIYIWAPLAGTCGVLLLSLVITLYCKRGRKKLLYIFKQPFMRPVQTTQEEDGCSCRFPEEEEGGCELRVKFSRSADAPAYQQGQNQLYNELNLGRREEYDVLDKRRGRDPEMGGKPRRKNPQEGLYNELQKDKMAEAYSEIGMKGERRRGKGHDGLYQGLSTATKDTYDALHMQALPPR
notes: Chimeric antigen receptor on primary human T cells
B4: 26B9 EGFRvIII specific CAR (other)
chain: EVQLVESWGVLVKPGGSLRLSCAASGFIFNNAWMSWVRQAPGKGLEWIGRIKSKSDGGTTDYAAPVKDRFTISRDDSKDTLYLQMNGLKTEDTAVYFCTTAPGGPFDYWGQGTLVTVSSGGGGSGGGGSGGGGSGGGGSDIVLTQSPLSLPVTPGEPASISCRSSQSLLHRDGFNYLDWFLQKPGQSPQLLIYLASSRASGVPDRFSGSDSGTDFTLKISRVEAEDVGVYYCMQALQTPITFGQGTRLEIKTTTPAPRPPTPAPTIASQPLSLRPEACRPAAGGAVHTRGLDFACDIYIWAPLAGTCGVLLLSLVITLYCKRGRKKLLYIFKQPFMRPVQTTQEEDGCSCRFPEEEEGGCELRVKFSRSADAPAYQQGQNQLYNELNLGRREEYDVLDKRRGRDPEMGGKPRRKNPQEGLYNELQKDKMAEAYSEIGMKGERRRGKGHDGLYQGLSTATKDTYDALHMQALPPR
notes: as for B3
B5: 30D8 EGFRvIII specific CAR (other)
chain: EVQLVESGGGLVKPGGSLRLSCEASGFTFSDAWMSWVRQAPGKGLEWVGRIKSKTDGGTTDYVVPLNGRFIISRDDSRNTLYLQLNNLKTEDTAVYYCTTVPGSYGYWGQGTLVTVSSGGGGSGGGGSGGGGSGGGGSDIVMTQSPLSLPVTPGEPASISCRSSQSLLHNKRNNYLDWFLQKPGQSPQLLIYLASNRASGVPDRFSGGGSGTDFTLKISRVEAEDVGVYYCMQAQQTPITFGQGTRLEIKTTTPAPRPPTPAPTIASQPLSLRPEACRPAAGGAVHTRGLDFACDIYIWAPLAGTCGVLLLSLVITLYCKRGRKKLLYIFKQPFMRPVQTTQEEDGCSCRFPEEEEGGCELRVKFSRSADAPAYQQGQNQLYNELNLGRREEYDVLDKRRGRDPEMGGKPRRKNPQEGLYNELQKDKMAEAYSEIGMKGERRRGKGHDGLYQGLSTATKDTYDALHMQALPPR
notes: as for B3

Columns and labels:
[1] = molecular target: T1, Monomeric 8-histidine tagged human EGFRvIII extracellular domain (human, UniProt P00533 298-645); experiment: SPR, captured by anti-human Fc, 25 C
T1 construct: Analyte in all SPR assays; not shown: 8-histidine tag
Method: Human anti-EGFRvIII antibodies were sequenced and subcloned into suitable vectors for expression as recombinant human IgG1 antibodies. […] (Table 9) on a surface plasmon resonance Biacore™ T200 biosensor equipped with an anti-human Fc coupled CM4 sensor chip (GE Healthcare Inc., Piscataway, N.J.). Anti-EGFRvII antibodies were captured by anti-human Fc. Monomeric 8-histidine tagged human EGFRvIII extracellular domain was then injected as the analyte at 10-fold dilution series starting at 1000 nM.

[2] = molecular target: T2, EGFR-mFc (human; mouse, UniProt P00533 25-645); experiment: flow cytometry, CAR T cells stained with mFc fusion protein, Day 4
T2 construct: extracellular domain; Produced in HEK293 cells; also called recombinant EGFR-mFc; not shown: mouse IgG1-Fc domain
Description: To determine target binding specificity of the CARs, recombinant proteins EGFRvII-mFc and EGFR-mFc, which comprise of the extracellular domain of either human EGFRvIII or human wild-type EGFR, respectively, fused with mouse IgG1-Fc domain, were produced in HEK293 cells. […]

| Binder | Kd [1] [nM] | koff [1] [s⁻¹] | kon [1] [M⁻¹ s⁻¹] | binding result [2] |
| --- | --- | --- | --- | --- |
| B1 | 678 | 0.0141 | 20800 |  |
| B2 | 532 | 0.00894 | 16800 |  |
| B3 |  |  |  | no binding |
| B4 |  |  |  | no binding |
| B5 |  |  |  | no binding |
